Measured values: PMC5078831

Molecular target: Coxsackie B–Adenovirus Receptor (CAR), human, of 293 cells (human (endogenous in 293)) (UniProt P78310)
Test: ELISA; virus attachment assay: cells on 96-well plates, biotinylated AdV5 (MOI=100 virus particles per cell) for 90 min on ice (4 °C) or at 37 °C, washed, fixed with 3 % paraformaldehyde, streptavidin-HRP; anti-CAR antibodies blocked 95–98 % of the signal (data not shown)

UniProt P78310, sequence (P78310 20-365): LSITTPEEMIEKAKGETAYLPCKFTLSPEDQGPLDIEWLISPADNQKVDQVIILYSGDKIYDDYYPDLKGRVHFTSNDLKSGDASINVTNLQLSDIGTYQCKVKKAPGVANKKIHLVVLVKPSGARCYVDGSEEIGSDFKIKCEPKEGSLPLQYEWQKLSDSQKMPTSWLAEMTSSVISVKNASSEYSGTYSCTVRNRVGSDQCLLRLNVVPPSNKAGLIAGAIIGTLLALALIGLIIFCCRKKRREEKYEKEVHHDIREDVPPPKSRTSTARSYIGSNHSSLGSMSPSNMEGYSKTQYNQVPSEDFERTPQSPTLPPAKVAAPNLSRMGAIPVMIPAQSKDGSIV

“biotinylated AdV5-GFP virus particles (complex)” was tested, and the percent of the virus attached to cells was over 60%.
